Read-outs that look alike come from different tables or passages of the source.
Columns and labels:
[1] = system: B4 deaminase; conditions: 5mC at position 17; solid support, overnight
[2] = system: T1, B5 deaminase; conditions: Zn, 2-3 h
T1 sequence: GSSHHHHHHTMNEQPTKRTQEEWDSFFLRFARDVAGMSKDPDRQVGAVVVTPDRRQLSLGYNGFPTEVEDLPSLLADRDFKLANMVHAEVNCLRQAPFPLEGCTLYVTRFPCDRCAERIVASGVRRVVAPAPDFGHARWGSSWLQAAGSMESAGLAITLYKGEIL

[3] = system: T2, E10 deaminase; conditions: 2-3 h
T2 sequence: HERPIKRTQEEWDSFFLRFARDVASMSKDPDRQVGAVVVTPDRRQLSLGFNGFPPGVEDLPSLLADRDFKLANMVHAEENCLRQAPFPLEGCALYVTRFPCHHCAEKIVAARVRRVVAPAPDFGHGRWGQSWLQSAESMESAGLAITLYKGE

[4] = system: T3, F7 deaminase; conditions: Zn, 2-3 h
T3 sequence: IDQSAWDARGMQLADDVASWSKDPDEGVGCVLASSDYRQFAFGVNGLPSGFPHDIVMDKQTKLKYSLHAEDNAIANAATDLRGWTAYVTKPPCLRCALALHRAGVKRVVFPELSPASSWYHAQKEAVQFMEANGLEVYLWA

[5] = system: T4, PBCV-1 deaminase (Paramecium bursaria chlorella virus 1?); conditions: overnight
T4 sequence: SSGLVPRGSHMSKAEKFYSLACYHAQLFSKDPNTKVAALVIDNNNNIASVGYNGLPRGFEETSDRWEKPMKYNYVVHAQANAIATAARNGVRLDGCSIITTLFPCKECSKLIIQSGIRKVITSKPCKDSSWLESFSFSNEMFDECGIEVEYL

[6] = system: T1, B5 deaminase
[7] = system: APOBEC
[8] = system: T1, B5 deaminase; conditions: 30 C 12 h, 6 uM enzyme
[9] = system: T1, B5 deaminase; conditions: all C replaced by 5mC; most preferred motif ATCAA; least GGCCC 22.51%
[10] = system: T2, E10 deaminase; conditions: all C replaced by 5mC; most preferred motif ATCAA; least GGCGC 11.58%
[11] = system: T3, F7 deaminase; conditions: all C replaced by 5mC; most preferred motif GTCAG; least GGCCG 5.51%
[12] = system: T5, G12 deaminase; conditions: all C replaced by 5mC; most preferred motif TACGG; least GCCCC 0.90%
T5 sequence: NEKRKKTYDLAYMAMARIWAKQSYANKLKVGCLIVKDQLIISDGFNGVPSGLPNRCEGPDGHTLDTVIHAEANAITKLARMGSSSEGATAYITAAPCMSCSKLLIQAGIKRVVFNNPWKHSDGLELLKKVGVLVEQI

[13] = system: T6, H3 deaminase; conditions: all C replaced by 5mC; most preferred motif AACTT; least GGCCC 1.28%
T6 sequence: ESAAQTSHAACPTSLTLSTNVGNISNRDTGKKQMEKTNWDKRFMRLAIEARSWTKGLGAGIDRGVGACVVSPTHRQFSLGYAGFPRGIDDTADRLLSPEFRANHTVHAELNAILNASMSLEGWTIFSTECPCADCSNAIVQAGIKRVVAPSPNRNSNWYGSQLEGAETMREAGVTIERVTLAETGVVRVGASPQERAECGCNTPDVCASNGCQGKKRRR

[14] = system: T1, B5 deaminase; conditions: LC/MS
[15] = biological target: T7, PRW313; experiment: 1 h; conditions: label: 5'-FAM
T7 chain: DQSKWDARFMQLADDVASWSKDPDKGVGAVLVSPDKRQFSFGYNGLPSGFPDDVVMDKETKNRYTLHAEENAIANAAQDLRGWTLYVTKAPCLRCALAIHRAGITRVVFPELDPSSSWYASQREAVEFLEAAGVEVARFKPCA

[16] = biological target: T8, PRW314; experiment: 1 h; conditions: label: 5'-FAM
T8 chain: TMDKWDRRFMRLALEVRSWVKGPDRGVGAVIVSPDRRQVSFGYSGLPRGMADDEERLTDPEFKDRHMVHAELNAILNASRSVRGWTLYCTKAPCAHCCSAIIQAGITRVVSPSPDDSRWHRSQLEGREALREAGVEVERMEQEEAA

[17] = biological target: T9, PRW294; experiment: 1 h; conditions: label: 5'-FAM
T9 chain: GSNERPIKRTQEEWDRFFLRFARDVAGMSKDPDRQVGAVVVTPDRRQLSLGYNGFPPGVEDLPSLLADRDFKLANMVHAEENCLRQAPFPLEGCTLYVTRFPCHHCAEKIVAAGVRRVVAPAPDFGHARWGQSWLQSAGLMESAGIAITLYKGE

[18] = biological target: T10, PRW311; experiment: 1 h; conditions: label: 5'-FAM
T10 chain: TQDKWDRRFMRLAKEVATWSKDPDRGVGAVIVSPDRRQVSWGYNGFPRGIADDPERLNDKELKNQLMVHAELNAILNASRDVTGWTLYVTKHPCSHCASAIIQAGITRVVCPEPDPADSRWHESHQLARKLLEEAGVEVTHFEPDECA

[19] = biological target: T11, G10 deaminase; experiment: solid support, overnight; conditions: tags: immobilized on solid support; label: 5'-FAM
T11 chain: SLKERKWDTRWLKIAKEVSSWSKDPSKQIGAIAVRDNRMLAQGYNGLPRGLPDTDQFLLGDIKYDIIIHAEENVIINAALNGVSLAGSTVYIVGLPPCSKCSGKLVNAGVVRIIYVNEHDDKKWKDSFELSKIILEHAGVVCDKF

[20] = biological target: T12, 206 deaminase; experiment: solid support, overnight; conditions: tags: immobilized on solid support; label: 5'-FAM
T12 chain: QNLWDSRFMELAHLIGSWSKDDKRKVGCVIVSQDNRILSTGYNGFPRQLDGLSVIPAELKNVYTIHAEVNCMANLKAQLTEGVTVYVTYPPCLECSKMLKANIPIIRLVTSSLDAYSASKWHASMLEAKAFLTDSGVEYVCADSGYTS

[21] = biological target: T13, E12 deaminase; experiment: solid support, overnight; conditions: tags: immobilized on solid support; label: 5'-FAM
T13 chain: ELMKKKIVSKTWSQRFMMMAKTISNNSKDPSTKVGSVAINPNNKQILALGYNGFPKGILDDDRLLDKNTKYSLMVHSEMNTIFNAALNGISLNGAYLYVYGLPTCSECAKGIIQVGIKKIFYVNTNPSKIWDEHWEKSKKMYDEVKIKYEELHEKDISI

[22] = biological target: T14, 251 deaminase; experiment: solid support, overnight; conditions: tags: immobilized on solid support; label: 5'-FAM
T14 chain: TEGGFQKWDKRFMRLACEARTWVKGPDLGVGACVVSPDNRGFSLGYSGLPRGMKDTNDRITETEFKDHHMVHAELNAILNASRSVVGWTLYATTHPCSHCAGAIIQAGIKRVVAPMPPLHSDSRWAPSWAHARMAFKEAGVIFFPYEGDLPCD

[23] = biological target: T15, F12 deaminase; experiment: solid support, overnight; conditions: tags: immobilized on solid support; label: 5'-FAM
T15 chain: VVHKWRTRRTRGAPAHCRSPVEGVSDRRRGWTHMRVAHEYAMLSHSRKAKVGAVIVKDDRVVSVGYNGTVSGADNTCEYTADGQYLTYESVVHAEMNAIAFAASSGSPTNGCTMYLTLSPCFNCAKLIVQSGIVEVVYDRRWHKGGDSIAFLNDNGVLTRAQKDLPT

[24] = biological target: T16, H2 deaminase; experiment: solid support, overnight; conditions: tags: immobilized on solid support; label: 5'-FAM
T16 chain: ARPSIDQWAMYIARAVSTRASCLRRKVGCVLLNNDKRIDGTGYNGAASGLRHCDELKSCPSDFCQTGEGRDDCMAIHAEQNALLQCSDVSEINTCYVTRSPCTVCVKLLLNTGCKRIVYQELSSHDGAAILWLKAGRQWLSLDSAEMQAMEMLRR

[25] = biological target: T17, 252 deaminase; experiment: solid support, overnight; conditions: tags: immobilized on solid support; label: 5'-FAM
T17 chain: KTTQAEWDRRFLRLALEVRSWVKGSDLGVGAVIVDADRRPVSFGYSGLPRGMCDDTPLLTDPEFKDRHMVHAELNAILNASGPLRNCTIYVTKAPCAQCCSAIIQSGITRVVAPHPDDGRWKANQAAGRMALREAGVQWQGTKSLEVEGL

ATACACCGATGCAGAACTCATGGGCTTACGC [FAM 5mC oligo 1]
activity (% deamination) [1]: 3
activity (% deamination) ([2]; 5mC at position 17, EcoRI/CE assay, 42 C, Bis-Tris pH 6.5, 36% in FIG. 7B and when on Ni beads): 74
activity (% deamination) ([3]; 5mC at position 17, highest measured (6-7% in FIG. 7C/D)): 54
activity (% deamination) ([4]; 5mC at position 17): 72
activity (% deamination) ([5]; 5mC at position 17, 42 C, Bis-Tris pH 6.5): 51

ATACACCGATGCAGAACTCATGGGCTTACGC [FAM C oligo 4]
activity (% deamination) [2]: 4
activity (% deamination) [3]: 3
activity (% deamination) [4]: 12
activity (% deamination) [5]: 7

T4 genomic DNA, denatured
activity (% deamination) ([6]; 5gmC (glucosylated 5hmC), NaOH and heat denatured): 6

T4 genomic DNA, native
activity (% deamination) ([6]; 5gmC (glucosylated 5hmC), not denatured): 3

T4gt genomic DNA, denatured
activity (% deamination) ([6]; all C replaced by 5hmC, NaOH and heat denatured): 27

T4gt genomic DNA, native
activity (% deamination) ([6]; all C replaced by 5hmC, not denatured): 9

TGTCCGATAGACTCTACGCA [5hmC-oligo (Oligo 1)]
activity (% 5hmC to 5hmU) ([7]; 5hmC at position 14, unmodified C 100%): 100
activity (% 5hmC to 5hmU) ([8]; 5hmC at position 14, DpnII buffer, LC/MS, unmodified C 0.90%): 35

TGTCCGATAGACTCTACGCA [5mC-oligo (Oligo 2)]
activity ([7]; 5mC at position 14, unmodified C 94.1%): 100 % 5mC to T
activity ([8]; 5mC at position 14, unmodified C 2.80%): 21.1 % 5mC to T

XP12 genomic DNA, denatured
activity (% deamination) ([6]; all C replaced by 5mC, NaOH and heat denatured): 35
activity (% deamination) [9]: 74.6
activity (% deamination) [10]: 40.9
activity (% deamination) [11]: 22
activity (% deamination) [12]: 12.7
activity (% deamination) [13]: 11.3

XP12 genomic DNA, native
activity (% deamination) ([6]; all C replaced by 5mC, not denatured): 4

lambda genomic DNA, denatured
activity (% deamination) ([6]; NaOH and heat denatured): 6

lambda genomic DNA, native
activity (% deamination) ([6]; not denatured): 3

ssDNA oligo C (Table 6)
activity (% deamination) ([14]; average): 2

ssDNA oligo with 5caC (Table 6)
activity (% deamination) ([14]; 5caC): 2

ssDNA oligo with 5fC (Table 6)
activity (% deamination) ([14]; 5fC): 2

ssDNA oligo with 5gmC (Table 6)
activity (% deamination) ([14]; 5gmC): 2

ssDNA oligo with 5hmC (Table 6)
activity (% deamination) ([14]; 5hmC): 36

ssDNA oligo with 5mC (Table 6)
activity (% deamination) ([14]; 5mC): 53

B1: FAM 5mC oligo 1 (ssDNA)
DNA: ATACACCGATGCAGAACTCATGGGCTTACGC
modifications: 5mC at position 17
activity [15]: 90 % deamination
activity [16]: 90 % deamination
activity [17]: 73 % deamination
activity [18]: 69 % deamination
activity [19]: 4.5 % deamination
activity [20]: 50 % deamination
activity [21]: 5 % deamination
activity [22]: 66 % deamination
activity [23]: 10 % deamination
activity [24]: 7 % deamination
activity [25]: 12 % deamination

B2: FAM C oligo 4 (ssDNA)
DNA: ATACACCGATGCAGAACTCATGGGCTTACGC
activity [15]: 11 % deamination
activity [16]: 13 % deamination
activity [19]: 2.6 % deamination
